The experiment concerns the target T1, 3xFLAG-HSF1, Q00613.
T1 chain: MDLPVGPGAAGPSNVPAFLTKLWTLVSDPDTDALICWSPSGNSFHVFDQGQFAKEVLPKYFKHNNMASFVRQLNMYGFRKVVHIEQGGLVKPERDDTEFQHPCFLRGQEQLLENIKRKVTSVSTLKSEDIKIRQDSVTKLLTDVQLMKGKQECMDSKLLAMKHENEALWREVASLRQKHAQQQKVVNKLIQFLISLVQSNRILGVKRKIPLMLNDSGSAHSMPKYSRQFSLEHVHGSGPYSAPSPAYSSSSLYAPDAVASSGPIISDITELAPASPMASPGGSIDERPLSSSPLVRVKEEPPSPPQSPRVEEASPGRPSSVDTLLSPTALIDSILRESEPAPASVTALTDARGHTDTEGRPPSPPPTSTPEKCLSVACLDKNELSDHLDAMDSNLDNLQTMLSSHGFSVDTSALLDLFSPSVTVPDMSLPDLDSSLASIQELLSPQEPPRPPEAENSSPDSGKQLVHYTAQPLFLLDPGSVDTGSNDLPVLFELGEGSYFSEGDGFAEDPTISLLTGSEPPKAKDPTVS
Put plainly: cross-linking; cell extracts from transfected 293T cells, in vitro cross-linking with 2 mM ethylene glycol bis(succinimidyl succinate) (EGS), immunoblot; with or without DBC1 overexpression. The following applies: remark: other sources report otherwise.

B1: 3xFLAG-HSF1, Q00613 1-529 (natural protein)
chain: MDLPVGPGAAGPSNVPAFLTKLWTLVSDPDTDALICWSPSGNSFHVFDQGQFAKEVLPKYFKHNNMASFVRQLNMYGFRKVVHIEQGGLVKPERDDTEFQHPCFLRGQEQLLENIKRKVTSVSTLKSEDIKIRQDSVTKLLTDVQLMKGKQECMDSKLLAMKHENEALWREVASLRQKHAQQQKVVNKLIQFLISLVQSNRILGVKRKIPLMLNDSGSAHSMPKYSRQFSLEHVHGSGPYSAPSPAYSSSSLYAPDAVASSGPIISDITELAPASPMASPGGSIDERPLSSSPLVRVKEEPPSPPQSPRVEEASPGRPSSVDTLLSPTALIDSILRESEPAPASVTALTDARGHTDTEGRPPSPPPTSTPEKCLSVACLDKNELSDHLDAMDSNLDNLQTMLSSHGFSVDTSALLDLFSPSVTVPDMSLPDLDSSLASIQELLSPQEPPRPPEAENSSPDSGKQLVHYTAQPLFLLDPGSVDTGSNDLPVLFELGEGSYFSEGDGFAEDPTISLLTGSEPPKAKDPTVS
The molecule B1 displayed a stoichiometry N of 3.

The values above are taken from paper PMC12586603.
